Results from patent US20240408220A1, “PEPTIDE DENDRONS AND METHODS OF USE THEREOF” (ASTRAZENECA AB, priority 2021, published 2024).
Where no end group is shown, it is not given here. [ ]: non-standard residue; d: D form. Cit = NC(=O)NCCC[C@H](N)C(=O)O

What was measured:
[1] = Anionic stability assay (dextran sulfate dissociation of NPs); format: physicochemical
Procedure: Dextran sulfate (DS) solutions were prepared in 20 mM HEPES and added to NP solutions (prepared as in Example 4) so the final DS concentration was between […] and DNA concentration was 10 μg/mL. After a 15-minute decomplexation period, 15 μl of each formulation was added to a 2% E-gel with ethidium bromide and run for 10 minutes. pDNA release was calculated using ImageJ (NIH, Bethesda, Maryland) and the results shown in FIG. 2A where the percent of intact nanoparticles Is plotted as a function of DS concentration.

Cathepsin-B = Cathepsin-B (Homo sapiens, UniProt P07858); assay: Enzymatic DNA release from NPs by cathepsin-B; format: biochemical; details: relative to non-modified PD3 and all PD2 formulations
Procedure: NPs prepared as in Example 4 but in 8 mM L-Cysteine HCl buffer pH 6 at a final DNA concentration of 0.1 μg/μl. Cathepsin-B stock solution (60 units/mL) was subsequently added. Cat-B NP solutions were incubated at 37° C. for up to 4 hours. Aliquots were removed at the appropriate time points and analysed via agarose gel electrophoresis to visualize released DNA. DNA dilutions were prepared at different concentrations as a control and likewise added to the same agarose gel for subsequent quantification using bio-rad intensity software analysis and the results shown in FIG. 2B.

| Substance | dextran sulphate concentration above which DNA was readily released [1] | DNA release in response to cathepsin-B activity (Cathepsin-B) |
| --- | --- | --- |
| ({LEU}{ARG}8{LYS}{LEU}{ARG}4{LYS}{LEU}{ARG})2{LYS}{GLY}{VAL}{CIT}{GLY}{GLY}{SER}{CYS} (chain 1 LRKLRKLRKGV[Cit]GGSC-NH2; chain 2 LRKLRKLR; chain 3 LRKLR; also: branched dendron: side chains of K3, K6, K9 (chain 1) and K3, K6 (chain 2) amide-linked to other sequences, chain 2 C-terminus linked to another sequence) [PD1, comparison peptide dendron without modified lysines] | exceeding 50 μg/mL |  |
| ({LYS(M)}{LEU}{ARG})8({LYS}{LYS(M)}{LEU}{ARG})4({LYS}{LYS(M)}{LEU}{ARG})2{LYS}{GLY}{VAL}{CIT}{GLY}{GLY}{SER}{CYS} (chain 1 K(2‑morpholinoacetyl)LRKK(2‑morpholinoacetyl)LRKK(2‑morpholinoacetyl)LRKGV[Cit]GGSC-NH2; chain 2 K(2‑morpholinoacetyl)LRKK(2‑morpholinoacetyl)LRKK(2‑morpholinoacetyl)LR; chain 3 K(2‑morpholinoacetyl)LRKK(2‑morpholinoacetyl)LR; also: branched dendron: side chains of K4, K8, K12 (chain 1) and K4, K8 (chain 2) amide-linked to other sequences) [PD3(M)] |  | readily released DNA in response to cathepsin-B activity |
